Assays:
GH92 enzymes = test: EDTA inactivation and metal reactivation; format: biochemical, Bacteroides thetaiotaomicron; conditions: all the GH92 enzymes analyzed
Bt3990 = target: T1, Bt3990 (Bacteroides thetaiotaomicron, UniProt Q8A0N1); test: inhibition studies; format: biochemical
T1 sequence (Q8A0N1 20-755): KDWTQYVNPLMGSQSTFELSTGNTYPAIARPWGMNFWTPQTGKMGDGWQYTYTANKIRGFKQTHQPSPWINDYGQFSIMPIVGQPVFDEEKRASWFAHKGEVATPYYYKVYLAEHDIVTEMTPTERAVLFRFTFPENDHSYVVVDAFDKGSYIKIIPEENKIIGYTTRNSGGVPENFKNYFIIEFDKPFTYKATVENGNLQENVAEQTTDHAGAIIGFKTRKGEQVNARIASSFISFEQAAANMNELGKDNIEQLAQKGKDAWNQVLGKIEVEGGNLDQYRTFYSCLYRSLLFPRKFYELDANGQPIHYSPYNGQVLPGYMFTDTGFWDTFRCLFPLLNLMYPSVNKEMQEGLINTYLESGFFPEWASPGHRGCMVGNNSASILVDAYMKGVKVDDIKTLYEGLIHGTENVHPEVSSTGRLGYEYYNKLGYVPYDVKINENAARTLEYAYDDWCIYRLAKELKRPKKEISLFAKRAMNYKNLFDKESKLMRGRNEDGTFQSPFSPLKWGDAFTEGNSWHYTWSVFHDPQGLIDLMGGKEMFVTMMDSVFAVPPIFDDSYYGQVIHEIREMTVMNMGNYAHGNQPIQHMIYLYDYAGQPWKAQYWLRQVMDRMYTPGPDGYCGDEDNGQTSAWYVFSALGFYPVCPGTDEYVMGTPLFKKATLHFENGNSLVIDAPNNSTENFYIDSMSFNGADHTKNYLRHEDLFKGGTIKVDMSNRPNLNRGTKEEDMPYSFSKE

Bt3990 E585A = Bt3990 E585A (Bacteroides thetaiotaomicron, UniProt Q8A0N1, E585A); test: kinetics of enzyme variant; format: biochemical; conditions: E585A of Bt3990, activated substrate
Bt3990 E533A variant = test: kinetics of enzyme variant on DNP-Man; format: biochemical, Bacteroides thetaiotaomicron; conditions: E533A variant of Bt3990, activated aryl mannoside
[1] = substrate: OC[C@H]1O[C@H](O[C@H]2[C@H](O)[C@H](O)[C@@H](O)O[C@@H]2CO)[C@@H](O)[C@@H](O)[C@@H]1O; test: mannobiose hydrolysis kinetics; format: biochemical, Bacteroides thetaiotaomicron; conditions: other: most active mannobiose substrate, enzyme Bt4093, pH 7.0
[2] = substrate: O=[N+]([O-])c1ccc(O[C@H]2O[C@H](CO)[C@@H](O)[C@H](O)[C@@H]2O)cc1; test: 4NP-Man hydrolysis kinetics; format: biochemical, Bacteroides thetaiotaomicron; conditions: other: substrate 4NP-Man, enzyme Bt4093, pH 7.0

O=C(O)CN(CCN(CC(=O)O)CC(=O)O)CC(=O)O [EDTA]
effect on enzyme activity (GH92 enzymes): inactivated

[Ca+2] [calcium]
recovery of activity after EDTA (GH92 enzymes): fully recovered

OC[C@@H]1[C@@H](O)[C@H](O)[C@H](O)c2nccn21 [mannoimidazole]
Ki (Bt3990): 140 µM

O=[N+]([O-])c1ccc(O[C@H]2O[C@H](CO)[C@@H](O)[C@H](O)[C@@H]2O)c([N+](=O)[O-])c1 [DNP-Man]
change of kcat/Km (Bt3990 E585A): increased
kcat/Km relative to the wild-type enzyme (Bt3990 E533A variant): 370%

B1: Bt4093 (Bacteroides thetaiotaomicron VPI-5482) (protein)
chain: GDYVHQVNTLIGTKGTGLTSGYLYPGATYPYGMVQFTPSYFSKRSGFVINQLSGGGCEHMGNFPTFPVKGKLKMSPDNILNYRINVSEEKGHAGYYEAMVQEDIKAKLTVTERTGMASYEYPADQQYGTIIIGGGISATPIEQAAIVITAPNKCEGYAEGGNFCGLRTPYKVYFVAEFDTDAFETGTWKREELMPNTTFAEGEYSGVYFTFDVNKKKNIQYKIGVSYVSVENARENLKAENAEWDFQKIQNQAEAKWNHYLGMIEVEGTNPDRTTQFYTHLYRSFIHPNVCSDVNGEYMGADFRVHKSRSKHYTSFSNWDTYRTQIQLLSMLDPEVASDIVISHQLFAEQSGGSFPRWVMANIETGVMQGDPTPILIANAYAFGARNYDPKPIFKIMRKGAEEPGSKSQDVETRPGLKQYLDKGYYNASIQLEYTSADFAIGQFALHAVGDEFASWRYFHFARSWKNLYNSDTGWLQSRNPDGSWKSLGEDFRESTYKNYFWMVPYDIAGLVEIIGGKEKAEKRLDEFFTRLDAGYNDAWFASGNEPSFHIPWIYNWIGRPYKTQEIINRVLNEQYSSKIDGLPGNDDLGTMGAWYVFACIGLYPEIPGVGGFTVNTPIFSSVKVHLKKGDIVIKGGSEKDIYIKSMKLNGKSYESTWIDWDQLNSGATIEYRTSGKPDMKWGAKVVPPSFP
Km [1]: 35 ± 2.4 mM
kcat [1]: 1.33 ± 0.065 s⁻¹
kcat/Km [1]: 38.3 M⁻¹ s⁻¹
Km [2]: 1.3 ± 0.19 mM
kcat [2]: 0.0112 ± 0.000817 s⁻¹
kcat/Km [2]: 9.08 M⁻¹ s⁻¹

Reference: publication PMC3942423 (Nature chemical biology, 2009)
